Literature values as cited in PMC9747160.

Target: APOBEC3B CTD (Homo sapiens) (UniProt Q9UH17)
Assay: BLI

Sequence of UniProt Q9UH17 (Q9UH17 187-382): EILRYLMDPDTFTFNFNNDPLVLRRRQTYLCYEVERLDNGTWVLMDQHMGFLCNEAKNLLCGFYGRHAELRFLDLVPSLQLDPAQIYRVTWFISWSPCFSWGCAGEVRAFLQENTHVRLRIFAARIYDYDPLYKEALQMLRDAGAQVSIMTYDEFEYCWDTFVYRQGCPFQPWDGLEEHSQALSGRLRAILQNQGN

BORF2 (from UniProt P03190)
Kd: 1 nM
